Experimental data taken from the supplement of paper PMC6379048.
pEC50: −log10 of the molar value.

Experiments:
Assay in all cases: EC50 of free RNA motif oligo competing protein binding to immobilised probe
LRPPRC = LRPPRC (UniProt P42704)
Outline: (§1)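 Free RNA oligos (0 nM to 30 μM) were pre-incubated with HEK293-FT lysate (2.5 mg protein/well) for 1 h at 4°C, followed by 30 min at 4°C with the same 5′-amino-C6 oligos coupled to NHS-Sepharose beads. Bound proteins were quantified by label-free LC-MS/MS and normalised to the control. EC50 was derived from a four-parameter log-logistic fit, and Kd was obtained by multiplying EC50 by a protein-dependent depletion factor.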

NCL = NCL (UniProt P19338)
Chain of NCL (P19338 whole entry): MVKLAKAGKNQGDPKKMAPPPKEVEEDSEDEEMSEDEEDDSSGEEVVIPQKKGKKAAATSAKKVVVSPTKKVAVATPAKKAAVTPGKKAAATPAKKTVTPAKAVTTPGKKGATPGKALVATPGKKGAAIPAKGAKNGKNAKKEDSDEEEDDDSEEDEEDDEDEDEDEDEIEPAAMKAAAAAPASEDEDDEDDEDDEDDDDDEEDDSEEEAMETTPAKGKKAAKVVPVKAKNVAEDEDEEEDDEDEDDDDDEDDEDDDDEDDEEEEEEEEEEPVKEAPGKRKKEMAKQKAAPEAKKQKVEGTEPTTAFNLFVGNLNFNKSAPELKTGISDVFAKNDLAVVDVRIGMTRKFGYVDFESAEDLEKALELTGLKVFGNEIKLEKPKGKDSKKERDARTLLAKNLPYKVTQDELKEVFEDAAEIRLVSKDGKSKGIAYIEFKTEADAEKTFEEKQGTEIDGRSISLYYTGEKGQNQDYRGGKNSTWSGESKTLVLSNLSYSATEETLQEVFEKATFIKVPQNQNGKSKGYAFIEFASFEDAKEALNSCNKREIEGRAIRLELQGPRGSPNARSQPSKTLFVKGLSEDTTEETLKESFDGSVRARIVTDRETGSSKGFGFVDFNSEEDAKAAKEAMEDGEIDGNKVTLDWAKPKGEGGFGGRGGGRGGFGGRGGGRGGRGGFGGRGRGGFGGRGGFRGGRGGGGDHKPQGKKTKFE
Outline: as §1

HNRNPAB = HNRNPAB (UniProt Q99729)
Chain of HNRNPAB (Q99729 whole entry): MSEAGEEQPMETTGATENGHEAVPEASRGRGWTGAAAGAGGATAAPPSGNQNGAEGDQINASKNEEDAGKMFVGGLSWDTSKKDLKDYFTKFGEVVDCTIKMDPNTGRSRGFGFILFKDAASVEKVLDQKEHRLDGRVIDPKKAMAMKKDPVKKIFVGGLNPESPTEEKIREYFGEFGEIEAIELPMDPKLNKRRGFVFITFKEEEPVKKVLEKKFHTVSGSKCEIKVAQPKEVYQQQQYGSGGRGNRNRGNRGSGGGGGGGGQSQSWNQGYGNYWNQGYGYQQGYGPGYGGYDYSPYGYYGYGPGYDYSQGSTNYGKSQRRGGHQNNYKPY
Outline: as §1

ISY1 = target: T1, ISY1 (UniProt Q9ULR0)
T1 sequence: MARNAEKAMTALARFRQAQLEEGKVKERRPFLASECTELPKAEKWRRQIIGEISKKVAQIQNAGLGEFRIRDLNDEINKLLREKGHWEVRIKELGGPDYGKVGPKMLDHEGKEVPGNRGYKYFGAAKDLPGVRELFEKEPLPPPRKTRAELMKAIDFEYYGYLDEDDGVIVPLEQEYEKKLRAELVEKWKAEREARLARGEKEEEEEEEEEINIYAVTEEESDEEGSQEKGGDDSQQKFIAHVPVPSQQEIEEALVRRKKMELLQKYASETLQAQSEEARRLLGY
Outline: as §1

LSM3 = LSM3 (UniProt P62310)
Chain of LSM3 (P62310 whole entry): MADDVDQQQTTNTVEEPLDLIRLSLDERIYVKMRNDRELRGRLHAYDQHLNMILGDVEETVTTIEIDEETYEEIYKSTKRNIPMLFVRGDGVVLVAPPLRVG
Outline: as §1

RBMS1 = target: T2, RBMS1 (UniProt P29558)
T2 sequence: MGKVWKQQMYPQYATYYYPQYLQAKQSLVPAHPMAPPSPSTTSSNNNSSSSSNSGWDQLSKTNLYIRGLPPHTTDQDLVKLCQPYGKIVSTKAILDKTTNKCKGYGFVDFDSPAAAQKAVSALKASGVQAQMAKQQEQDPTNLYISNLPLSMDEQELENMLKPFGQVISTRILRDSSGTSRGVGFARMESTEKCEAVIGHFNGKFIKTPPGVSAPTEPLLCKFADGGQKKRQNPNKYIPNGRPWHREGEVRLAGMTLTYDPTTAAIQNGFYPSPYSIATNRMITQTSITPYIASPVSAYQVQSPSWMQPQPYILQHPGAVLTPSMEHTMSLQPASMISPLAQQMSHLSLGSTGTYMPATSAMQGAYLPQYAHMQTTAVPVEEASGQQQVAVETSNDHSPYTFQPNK
Outline: as §1

RBMS2 = target: T3, RBMS2 (UniProt Q15434)
T3 sequence: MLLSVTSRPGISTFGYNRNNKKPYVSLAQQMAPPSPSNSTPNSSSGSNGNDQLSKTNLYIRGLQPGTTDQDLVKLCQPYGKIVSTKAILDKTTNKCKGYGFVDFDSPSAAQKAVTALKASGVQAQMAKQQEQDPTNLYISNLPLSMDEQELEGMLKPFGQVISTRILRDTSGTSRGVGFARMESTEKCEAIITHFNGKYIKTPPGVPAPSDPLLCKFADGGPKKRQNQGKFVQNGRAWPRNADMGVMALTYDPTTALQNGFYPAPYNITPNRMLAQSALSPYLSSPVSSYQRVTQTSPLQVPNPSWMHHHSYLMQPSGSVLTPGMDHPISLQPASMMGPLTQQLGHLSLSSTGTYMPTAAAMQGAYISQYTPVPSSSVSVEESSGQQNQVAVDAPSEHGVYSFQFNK
Outline: as §1

XAB2 = target: T4, XAB2 (UniProt Q9HCS7)
T4 sequence: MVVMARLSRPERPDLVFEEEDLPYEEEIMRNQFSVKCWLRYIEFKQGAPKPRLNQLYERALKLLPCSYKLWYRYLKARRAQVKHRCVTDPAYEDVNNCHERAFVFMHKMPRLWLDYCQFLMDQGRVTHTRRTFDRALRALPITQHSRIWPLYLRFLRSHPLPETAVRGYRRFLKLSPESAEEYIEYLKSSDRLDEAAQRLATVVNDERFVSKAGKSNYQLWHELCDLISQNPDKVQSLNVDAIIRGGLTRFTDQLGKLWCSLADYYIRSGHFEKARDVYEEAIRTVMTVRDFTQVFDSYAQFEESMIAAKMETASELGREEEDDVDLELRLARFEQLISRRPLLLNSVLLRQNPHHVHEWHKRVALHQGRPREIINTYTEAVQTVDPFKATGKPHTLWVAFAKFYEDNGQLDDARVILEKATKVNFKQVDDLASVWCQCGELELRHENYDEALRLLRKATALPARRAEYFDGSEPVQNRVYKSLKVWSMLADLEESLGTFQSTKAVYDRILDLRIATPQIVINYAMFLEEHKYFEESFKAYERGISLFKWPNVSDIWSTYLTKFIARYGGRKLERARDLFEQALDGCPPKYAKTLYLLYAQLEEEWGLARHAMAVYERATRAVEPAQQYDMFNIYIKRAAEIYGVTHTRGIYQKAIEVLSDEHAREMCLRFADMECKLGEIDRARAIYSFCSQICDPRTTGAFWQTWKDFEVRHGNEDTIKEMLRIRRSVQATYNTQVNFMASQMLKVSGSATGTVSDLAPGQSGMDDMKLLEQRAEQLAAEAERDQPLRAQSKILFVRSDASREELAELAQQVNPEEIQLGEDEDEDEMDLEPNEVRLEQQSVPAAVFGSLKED
Outline: as §1

XRN1 = XRN1 (UniProt Q8IZH2)
Chain of XRN1 (Q8IZH2 whole entry): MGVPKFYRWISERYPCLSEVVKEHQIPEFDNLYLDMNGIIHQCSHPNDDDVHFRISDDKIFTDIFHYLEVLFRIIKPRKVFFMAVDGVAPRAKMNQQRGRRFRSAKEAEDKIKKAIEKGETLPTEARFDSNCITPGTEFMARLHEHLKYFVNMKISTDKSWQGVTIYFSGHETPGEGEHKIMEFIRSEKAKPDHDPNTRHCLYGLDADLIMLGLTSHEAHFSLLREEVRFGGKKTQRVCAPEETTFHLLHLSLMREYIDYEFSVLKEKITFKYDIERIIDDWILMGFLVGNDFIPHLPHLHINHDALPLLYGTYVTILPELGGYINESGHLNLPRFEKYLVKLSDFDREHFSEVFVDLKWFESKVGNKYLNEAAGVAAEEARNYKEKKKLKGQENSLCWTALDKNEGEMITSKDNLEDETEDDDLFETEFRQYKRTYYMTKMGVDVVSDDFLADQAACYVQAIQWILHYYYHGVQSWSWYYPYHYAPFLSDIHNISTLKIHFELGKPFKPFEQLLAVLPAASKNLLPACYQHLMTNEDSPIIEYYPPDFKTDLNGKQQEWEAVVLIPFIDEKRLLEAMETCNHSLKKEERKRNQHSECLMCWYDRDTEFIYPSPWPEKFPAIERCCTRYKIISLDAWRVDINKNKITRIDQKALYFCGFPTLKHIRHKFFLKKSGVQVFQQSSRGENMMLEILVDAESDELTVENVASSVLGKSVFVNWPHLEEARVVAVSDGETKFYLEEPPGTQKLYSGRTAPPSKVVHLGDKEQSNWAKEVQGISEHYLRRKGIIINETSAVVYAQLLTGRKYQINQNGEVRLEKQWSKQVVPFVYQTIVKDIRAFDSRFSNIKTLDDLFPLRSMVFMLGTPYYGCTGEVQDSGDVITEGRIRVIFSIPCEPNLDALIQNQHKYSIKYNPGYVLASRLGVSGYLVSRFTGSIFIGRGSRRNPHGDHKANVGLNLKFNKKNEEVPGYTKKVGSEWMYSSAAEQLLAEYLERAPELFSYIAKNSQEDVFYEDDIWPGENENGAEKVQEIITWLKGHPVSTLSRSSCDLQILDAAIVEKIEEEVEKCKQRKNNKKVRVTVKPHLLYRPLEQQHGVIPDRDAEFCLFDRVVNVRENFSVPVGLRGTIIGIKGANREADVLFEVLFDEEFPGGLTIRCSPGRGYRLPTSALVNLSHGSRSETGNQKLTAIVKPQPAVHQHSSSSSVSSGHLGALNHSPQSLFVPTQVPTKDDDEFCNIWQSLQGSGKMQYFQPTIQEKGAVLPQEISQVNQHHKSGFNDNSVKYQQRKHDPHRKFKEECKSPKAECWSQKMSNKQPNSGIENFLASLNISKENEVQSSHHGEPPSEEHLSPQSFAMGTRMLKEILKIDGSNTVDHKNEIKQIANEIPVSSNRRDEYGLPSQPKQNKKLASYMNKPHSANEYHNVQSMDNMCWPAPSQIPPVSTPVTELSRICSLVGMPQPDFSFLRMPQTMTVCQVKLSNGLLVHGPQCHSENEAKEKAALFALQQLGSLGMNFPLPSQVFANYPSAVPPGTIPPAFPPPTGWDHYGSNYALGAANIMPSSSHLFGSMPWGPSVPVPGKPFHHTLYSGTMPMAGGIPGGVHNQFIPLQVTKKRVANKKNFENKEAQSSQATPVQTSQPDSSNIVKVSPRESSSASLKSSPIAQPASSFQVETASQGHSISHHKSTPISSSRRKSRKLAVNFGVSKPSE
Outline: as §1

ZCCHC24 = ZCCHC24 (UniProt Q8N2G6)
Chain of ZCCHC24 (Q8N2G6 whole entry): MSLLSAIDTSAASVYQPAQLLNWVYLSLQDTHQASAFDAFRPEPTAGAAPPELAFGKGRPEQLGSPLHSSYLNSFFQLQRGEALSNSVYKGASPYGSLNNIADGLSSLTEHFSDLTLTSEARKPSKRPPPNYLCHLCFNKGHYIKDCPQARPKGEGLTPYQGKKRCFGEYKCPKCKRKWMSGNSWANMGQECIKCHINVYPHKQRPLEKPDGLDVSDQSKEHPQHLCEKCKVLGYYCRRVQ
Outline: as §1

| Sequence | pEC50 (LRPPRC) | pEC50 (NCL) | pEC50 (HNRNPAB) | pEC50 (ISY1) | pEC50 (LSM3) | pEC50 (RBMS1) | pEC50 (RBMS2) | pEC50 (XAB2) | pEC50 (XRN1) | pEC50 (ZCCHC24) |
| --- | --- | --- | --- | --- | --- | --- | --- | --- | --- | --- |
| CUGUCCU | 5.64 | 6.49 | – | – | – | – | – | – | – | – |
| AAUAAA | 5.54 | – | 5.52 | 6.04 | 6.45 | 5.81 | 5.89 | 5.86 | 6.36 | 6.26 |
| UAUUUAU | – | 5.66 | 5.51 | 6.14 | 6.16 | 6.34 | 6.26 | 6.22 | 6.71 | 5.60 |
